Reference: patent US6683059B1, “Mini-E1A gene and gene products” (priority 1996, dated 2004)

Tested on: subclone of SKOV-3.ip1
Test: long-term survival study, E1A-Cterm lipid:DNA complex, aggressive SKOV-3.ip1 subclone in nude mice
Format: in vivo, mouse
Description: FIG. 9. Comparison of tumor suppressor activity of full-length E1A and mini-E1ACterm. Mice bearing tumors from an aggressive subclone of the SKOV-3.ip1 cell line were injected with the treatment compounds indicated. […] As also shown, while all nine control animals were dead by that time, none of the animals receiving full-length E1A or mini-E1ACterm had died. Mini-E1ACterm was equivalent to full-length E1A in tumor suppression.
Long-term survival studies were performed using the E1A-Cterm mini-gene in a tumor engraftment model and DNA-lipid formulations as described above. In this study, it appears that the subclone of SKOV-3.ip1 used may have been even more aggressive in tumor formation than the SKOV-3.ip1 parent used to induce tumors in the nude mice since no control mice survived for more than about 35 days. The protocol was otherwise as in the long-term study above except that: (i) 10 mice were used in each group receiving E1A formulations and 9 mice were used in the control group; (ii) 5% dextrose was used for control injections; and (iii) a lipid:DNA ratio of 10:1 w as used for the treatment formulations however, as above, each injection contained 15 μg of DNA.

B1: mini-E1ACterm: mini-E1A construct in pcDNA1.1 encoding E1A 186-289; expected polypeptide about 80 amino acids, 209-289, SEQ ID NO:1 (nucleic acid)
chain: CCTGTGTCTGAACCTGAGCCTGAGCCCGAGCCAGAACCGGAGCCTGCAAGACCTACCCGCCGTCCTAAAATGGCGCCTGCTATCCTGAGACGCCCGACATCACCTGTGTCTAGAGAATGCAATAGTAGTACGGATAGCGTGGACTCCGGTCCTTCTAACACACCTCCTGAGAGACACCCGGTGGTCCCGCTGTGCCCCATTAAACCAGTTGCCGTGAGAGTTGGTGGGCGTCGCCAGGCTGTGGAATGTATCGAGGACTTGCTTAACGAGCCTGGGCAACCTTTGGACTTGAGCTGTAAACGCCCCAGGCCATAA
modifications: pcDNA1.1 vector
- animals alive when the last dextrose control mouse died (about day 35, lipid:DNA 10:1, 15 μg DNA per injection, 10 mice per group): 100%
- tumor masses in surviving mice after 21 weeks (visual inspection, the 4 surviving mice): no signs of such tumor masses
